In patent US20250011363A1, “OPTIMIZED SHORTENED PEPTIDE THAT BINDS TO ACETYLCHOLINE RECEPTOR, AND USE THEREOF” (SKINMED CO., LTD., priority 2021, published 2025) one finds Binding affinity (relative to RRGVRR) (value relative to the RRGVRR sequence), Binding affinity (RU) and Binding affinity data, which are given here for 62 molecules.

Test [1] addresses acetylcholine receptor. Kind of test: SPR, AchR immobilized on chip. In general terms: Surface plasmon resonance follows binding to a sensor surface in real time, without labels.
The target of test [2] is acetylcholine receptor. As to the kind of experiment: SPR, AchR immobilised on chip, peptide 10 uM.
Test [3] has as its target acetylcholine receptor. Kind of test: SPR, peptide at 10 uM over immobilized acetylcholine receptor.
Test [4] concerns the target acetylcholine receptor. As to the kind of experiment: SPR, AchR on chip, peptide 10 uM.
For test [5], the target named is acetylcholine receptor. Kind of test: SPR, receptor immobilized, peptide 10 uM.
Test [6] has as its target acetylcholine receptor. As to the kind of experiment: SPR, peptide at 10 µM on acetylcholine receptor.

In the case of RRGVRRY, the Binding affinity (relative to RRGVRR) (value relative to the RRGVRR sequence) with acetylcholine receptor [1] stood at 101.
On to WRRGVRR, for which the Binding affinity (relative to RRGVRR) (value relative to the RRGVRR sequence) with acetylcholine receptor [1] came out at 134.
In the case of RRGVRR [6mer-1-210], the Binding affinity (RU) with acetylcholine receptor [1] and in the test with acetylcholine receptor [2] was 184 RU each time.
As to RRQYKR [6mer-2-80], in the test with acetylcholine receptor [3], the Binding affinity (RU) worked out at 148 RU.
In the test with acetylcholine receptor [1], RRGVRRR displayed a Binding affinity (relative to RRGVRR) (value relative to the RRGVRR sequence) of 188.
In the test with acetylcholine receptor [1], RRGVRRA had a Binding affinity (relative to RRGVRR) (value relative to the RRGVRR sequence) of 118.
On the same count and under the same terms, under RRGVRRC stands 131.
On the same count and under the same terms, the value for RRGVRRW was 134.
Still for that read-out and setting: the value for HRRGVRR was 160.
As for RLYTKR [6mer-2-73], the Binding affinity (RU) in the test with acetylcholine receptor [3] turned out to be 139 RU.
On the same count and under the same terms, the value for RQLSKR [6mer-2-79] was 135 RU.
Turning to RRGVRRK, the Binding affinity (relative to RRGVRR) (value relative to the RRGVRR sequence) with acetylcholine receptor [1] stood at 171.
Molecule RWIYKR [6mer-2-74] registered a Binding affinity (RU) with acetylcholine receptor [3] of 136 RU.
For the molecule FRRGVRR, the Binding affinity (relative to RRGVRR) (value relative to the RRGVRR sequence) with acetylcholine receptor [1] was found to be 139.
In the case of KRLLRK [6mer-2-70], in the test with acetylcholine receptor [3], the Binding affinity (RU) is 126 RU.
For RGVQKK [6mer-2-82], the Binding affinity (RU) with acetylcholine receptor [3] was found to be 124 RU.
In the test with acetylcholine receptor [1], KRRGVRR displayed a Binding affinity (relative to RRGVRR) (value relative to the RRGVRR sequence) of 169.
Molecule RKSLLR [Spep 6mer] came in with a Binding affinity (RU) with acetylcholine receptor [1] of 35 RU.
As for RRGVRRD, the Binding affinity (relative to RRGVRR) (value relative to the RRGVRR sequence) with acetylcholine receptor [1] was determined as 61.
In the case of SRRGVRR, in the test with acetylcholine receptor [1], the Binding affinity (relative to RRGVRR) (value relative to the RRGVRR sequence) stood at 117.
RRVSRR [6mer-2-81] yielded a Binding affinity (RU) with acetylcholine receptor [3] of 121 RU.
On the same count and under the same terms, the value for KRYLKR [6mer-2-78] was 135 RU.
For the molecule RRRGVRR, the Binding affinity (relative to RRGVRR) (value relative to the RRGVRR sequence) in the test with acetylcholine receptor [1] is 185.
Same read-out and setting: under RRGVRRM stands 127; under LRRGVRR, 149.
Still for that read-out and setting: under RRGVRRF stands 137.
The same measure, in the same setting: under CRRGVRR stands 128; under NRRGVRR, 109; under RRGVRRE, 33.
The molecule KKTNKR [6mer-1-1199] came in with a Binding affinity (RU) in the test with acetylcholine receptor [3] of 39 RU.
Same read-out and setting: the value for KQVYKR [6mer-2-71] was 141 RU.
For ARRGVRR, in the test with acetylcholine receptor [1], the Binding affinity (relative to RRGVRR) (value relative to the RRGVRR sequence) was 134.
For RRGVRRI, the Binding affinity (relative to RRGVRR) (value relative to the RRGVRR sequence) with acetylcholine receptor [1] was determined as 138.
In the test with acetylcholine receptor [3], KQQTRR [6mer-2-77] gave a Binding affinity (RU) of 123 RU.
With KWFLRK [6mer-2-69], in the test with acetylcholine receptor [3], the Binding affinity (RU) stood at 139 RU.
Molecule RRGVRRN had a Binding affinity (relative to RRGVRR) (value relative to the RRGVRR sequence) with acetylcholine receptor [1] of 105.
Consider KQYQRR [6mer-2-83], for which, in the test with acetylcholine receptor [3], the Binding affinity (RU) came to 135 RU.
MRRGVRR: the Binding affinity (relative to RRGVRR) (value relative to the RRGVRR sequence) with acetylcholine receptor [1] was 124.
The same measure, in the same setting: the value for ERRGVRR was 43.
As to RRGVRRH, the Binding affinity (relative to RRGVRR) (value relative to the RRGVRR sequence) in the test with acetylcholine receptor [1] worked out at 154.
On to KLYTRK [6mer-2-75], for which the Binding affinity (RU) in the test with acetylcholine receptor [3] is 133 RU.
RRGVRRS registered a Binding affinity (relative to RRGVRR) (value relative to the RRGVRR sequence) with acetylcholine receptor [1] of 118.
Consider RSYSR [5mer-311], for which the Binding affinity (RU) with acetylcholine receptor [1] and with acetylcholine receptor [4] was 167 RU throughout.
On to RWRYKR [6mer-2-136], for which the Binding affinity (RU) with acetylcholine receptor [1] is 194 RU. Besides, the Binding affinity with acetylcholine receptor [5] amounted to 194 RU.
Turning to QRRGVRR, the Binding affinity (relative to RRGVRR) (value relative to the RRGVRR sequence) with acetylcholine receptor [1] is 101.
In the test with acetylcholine receptor [1], RRGVRRT registered a Binding affinity (relative to RRGVRR) (value relative to the RRGVRR sequence) of 113.
The same measure, in the same setting: under RRGVRRP stands 142; under DRRGVRR, 159.
Turning to RRQRR [5mer-73], the Binding affinity (RU) in the test with acetylcholine receptor [1] and with acetylcholine receptor [6] was 179 RU in each case.
In the case of RRGVRRQ, in the test with acetylcholine receptor [1], the Binding affinity (relative to RRGVRR) (value relative to the RRGVRR sequence) stood at 105.
On the same count and under the same terms, under VRRGVRR stands 140.
For the molecule RRQSRK [6mer-2-76], the Binding affinity (RU) with acetylcholine receptor [3] was 142 RU.
Still for that read-out and setting: the value for RKACEK [6mer-1-1200] was 21 RU.
In the test with acetylcholine receptor [1], PRRGVRR had a Binding affinity (relative to RRGVRR) (value relative to the RRGVRR sequence) of 138.
With YRRGVRR, the Binding affinity (relative to RRGVRR) (value relative to the RRGVRR sequence) with acetylcholine receptor [1] amounted to 145.
KSLLR [5mer-ND]: the Binding affinity (RU) in the test with acetylcholine receptor [1] is 23 RU.
Molecule KRIQKK [6mer-2-72] returned a Binding affinity (RU) with acetylcholine receptor [3] of 144 RU.
Turning to IRRGVRR, the Binding affinity (relative to RRGVRR) (value relative to the RRGVRR sequence) with acetylcholine receptor [1] stood at 126.
On to RRATER [6mer-1-1198], for which the Binding affinity (RU) with acetylcholine receptor [3] worked out at 28 RU.
As for TRRGVRR, the Binding affinity (relative to RRGVRR) (value relative to the RRGVRR sequence) with acetylcholine receptor [1] stood at 105.
On the same count and under the same terms, under RRGVRRL stands 146.
In turn, RRGVRRV displayed a Binding affinity (relative to RRGVRR) (value relative to the RRGVRR sequence) with acetylcholine receptor [1] of 149.
